Reference: PMC5779228

Target: His-tagged dimeric ϕO11 Dut (S. aureus phage ϕO11)
Test: crystal structure; ϕO11 Dut (10 mg/ml) with 0.5 mM dUPNPP and 5 mM MgCl2; sitting drop at 21°C; 0.2 M magnesium chloride, 0.1 M Tris-HCl pH 8.5, 20% PEG 8000; 2.1 Å

His-tagged dimeric ϕO11 Dut (enzyme)
stoichiometry N: 2
